The values that follow come from paper PMC11402785, “Structural basis for activity switching in polymerases determining the fate of let-7 pre-miRNAs” (Nature Structural & Molecular Biology, 2024).

Changes are numbered by the printed parent chain.

The target in series [1] is T1, TUT4 (ZCCHC11);LIN28A (Homo sapiens;Homo sapiens, UniProt Q5TAX3;Q9H9Z2 254-1315;1-209, |).
T1 sequence 1: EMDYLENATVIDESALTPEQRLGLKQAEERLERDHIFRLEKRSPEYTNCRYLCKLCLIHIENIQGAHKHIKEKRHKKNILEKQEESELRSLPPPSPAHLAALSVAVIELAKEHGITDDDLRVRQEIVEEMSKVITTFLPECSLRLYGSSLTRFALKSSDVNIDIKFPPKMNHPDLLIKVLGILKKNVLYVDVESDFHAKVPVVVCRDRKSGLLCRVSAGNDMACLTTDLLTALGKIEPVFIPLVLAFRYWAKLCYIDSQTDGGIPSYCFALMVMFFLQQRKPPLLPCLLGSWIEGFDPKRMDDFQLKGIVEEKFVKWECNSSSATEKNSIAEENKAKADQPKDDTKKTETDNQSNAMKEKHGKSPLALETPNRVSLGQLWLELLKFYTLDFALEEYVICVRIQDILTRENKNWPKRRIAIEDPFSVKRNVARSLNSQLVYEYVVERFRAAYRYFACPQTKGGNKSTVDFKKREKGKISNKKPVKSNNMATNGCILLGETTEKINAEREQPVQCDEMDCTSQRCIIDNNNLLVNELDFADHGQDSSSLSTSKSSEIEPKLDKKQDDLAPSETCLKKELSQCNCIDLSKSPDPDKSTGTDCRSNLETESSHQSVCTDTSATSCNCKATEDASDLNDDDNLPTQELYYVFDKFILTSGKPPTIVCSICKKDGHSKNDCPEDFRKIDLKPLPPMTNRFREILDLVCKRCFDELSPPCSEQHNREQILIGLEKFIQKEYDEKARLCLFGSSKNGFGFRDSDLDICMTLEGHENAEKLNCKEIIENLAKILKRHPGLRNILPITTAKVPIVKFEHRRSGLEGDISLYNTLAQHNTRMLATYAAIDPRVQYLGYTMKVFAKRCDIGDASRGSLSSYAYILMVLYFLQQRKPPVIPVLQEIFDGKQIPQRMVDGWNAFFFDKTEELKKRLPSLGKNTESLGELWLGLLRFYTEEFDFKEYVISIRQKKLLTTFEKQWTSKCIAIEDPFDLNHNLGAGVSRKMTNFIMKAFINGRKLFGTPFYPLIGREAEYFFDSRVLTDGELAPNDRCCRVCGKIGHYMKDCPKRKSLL
T1 sequence 2: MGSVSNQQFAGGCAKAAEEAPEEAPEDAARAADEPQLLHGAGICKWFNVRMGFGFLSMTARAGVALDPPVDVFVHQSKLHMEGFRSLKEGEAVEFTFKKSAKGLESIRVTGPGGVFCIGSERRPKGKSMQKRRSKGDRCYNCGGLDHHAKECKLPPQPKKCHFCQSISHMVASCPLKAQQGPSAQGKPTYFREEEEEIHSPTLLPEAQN
In words: cryo-EM; Zn2+; ternary capture state, 3.68 A; EMSA: 20 mM HEPES pH 7.8, 100 mM NaCl, 2 mM CaCl2, 50 uM ZnCl2, 5% glycerol, 5 mM DTT, 0.5 mM UTP, RNase inhibitor, on ice 30 min; 0.1 uM RNA, 0.2 uM TUT, 0.3 uM LIN28A; native gel in 1x TBE at 4 C. As to conditions: protein: recombinant;recombinant; tags: N-term His6-GST (TEV cleavable), C-term twin-Strep;N-term His6-GST fusion; copies: 1;1; hairpin, 1 nt 3' overhang. (In general: A gel shift assay detects complexes by their altered migration in electrophoresis.)

A further series concerns the target TUT7 (ZCCHC6);LIN28A (Homo sapiens;Homo sapiens, UniProt Q5VYS8;Q9H9Z2 1-1495;1-209, |). The series can be described thus: cryo-EM; Zn2+; ternary conformation I, 3.81 A; EMSA: 20 mM HEPES pH 7.8, 100 mM NaCl, 2 mM CaCl2, 50 uM ZnCl2, 5% glycerol, 5 mM DTT, 0.5 mM UTP, RNase inhibitor, on ice 30 min; 0.1 uM RNA, 0.2 uM TUT, 0.3 uM LIN28A; native gel in 1x TBE at 4 C. The settings on record: protein: recombinant;recombinant; tags: N-term His6-GST (TEV cleavable), C-term twin-Strep;N-term His6-GST fusion; copies: 1;1; hairpin, 1 nt 3' overhang.

For series [2], the target named is T1, TUT4 (ZCCHC11);LIN28A. The series can be described thus: EMSA; 0.5 mM UTP, Ca2+, Zn2+; higher-order assemblies, concentration dependent; EMSA: 20 mM HEPES pH 7.8, 100 mM NaCl, 2 mM CaCl2, 50 uM ZnCl2, 5% glycerol, 5 mM DTT, 0.5 mM UTP, RNase inhibitor, on ice 30 min; 0.1 uM RNA, 0.2 uM TUT, 0.3 uM LIN28A; native gel in 1x TBE at 4 C. The settings on record: protein: recombinant;recombinant; tags: N-term His6-GST (TEV cleavable), C-term twin-Strep;N-term His6-GST fusion; copies: 1;1; label: 3' CY dye; hairpin, 1 nt 3' overhang.

Series [3] concerns the target T2, TUT4 K919/K920 mutant (ZK1);LIN28A (Homo sapiens;Homo sapiens, UniProt Q5TAX3;Q9H9Z2 254-1315;1-209, K919A;K920A|).
T2 sequence 1: T1 sequence 1 with K666A, K667A
T2 sequence 2: T1 sequence 2
In words: EMSA; 0.5 mM UTP, Ca2+, Zn2+; higher-order assemblies seen; EMSA: 20 mM HEPES pH 7.8, 100 mM NaCl, 2 mM CaCl2, 50 uM ZnCl2, 5% glycerol, 5 mM DTT, 0.5 mM UTP, RNase inhibitor, on ice 30 min; 0.1 uM RNA, 0.2 uM TUT, 0.3 uM LIN28A; native gel in 1x TBE at 4 C. The settings on record: protein: recombinant;recombinant; tags: N-term His6-GST (TEV cleavable), C-term twin-Strep;N-term His6-GST fusion; copies: 1;1; label: 3' CY dye; hairpin, 1 nt 3' overhang.

Sequence of TUT7 (ZCCHC6);LIN28A (Q5VYS8 whole entry, the tested form may be a part, one chain of several): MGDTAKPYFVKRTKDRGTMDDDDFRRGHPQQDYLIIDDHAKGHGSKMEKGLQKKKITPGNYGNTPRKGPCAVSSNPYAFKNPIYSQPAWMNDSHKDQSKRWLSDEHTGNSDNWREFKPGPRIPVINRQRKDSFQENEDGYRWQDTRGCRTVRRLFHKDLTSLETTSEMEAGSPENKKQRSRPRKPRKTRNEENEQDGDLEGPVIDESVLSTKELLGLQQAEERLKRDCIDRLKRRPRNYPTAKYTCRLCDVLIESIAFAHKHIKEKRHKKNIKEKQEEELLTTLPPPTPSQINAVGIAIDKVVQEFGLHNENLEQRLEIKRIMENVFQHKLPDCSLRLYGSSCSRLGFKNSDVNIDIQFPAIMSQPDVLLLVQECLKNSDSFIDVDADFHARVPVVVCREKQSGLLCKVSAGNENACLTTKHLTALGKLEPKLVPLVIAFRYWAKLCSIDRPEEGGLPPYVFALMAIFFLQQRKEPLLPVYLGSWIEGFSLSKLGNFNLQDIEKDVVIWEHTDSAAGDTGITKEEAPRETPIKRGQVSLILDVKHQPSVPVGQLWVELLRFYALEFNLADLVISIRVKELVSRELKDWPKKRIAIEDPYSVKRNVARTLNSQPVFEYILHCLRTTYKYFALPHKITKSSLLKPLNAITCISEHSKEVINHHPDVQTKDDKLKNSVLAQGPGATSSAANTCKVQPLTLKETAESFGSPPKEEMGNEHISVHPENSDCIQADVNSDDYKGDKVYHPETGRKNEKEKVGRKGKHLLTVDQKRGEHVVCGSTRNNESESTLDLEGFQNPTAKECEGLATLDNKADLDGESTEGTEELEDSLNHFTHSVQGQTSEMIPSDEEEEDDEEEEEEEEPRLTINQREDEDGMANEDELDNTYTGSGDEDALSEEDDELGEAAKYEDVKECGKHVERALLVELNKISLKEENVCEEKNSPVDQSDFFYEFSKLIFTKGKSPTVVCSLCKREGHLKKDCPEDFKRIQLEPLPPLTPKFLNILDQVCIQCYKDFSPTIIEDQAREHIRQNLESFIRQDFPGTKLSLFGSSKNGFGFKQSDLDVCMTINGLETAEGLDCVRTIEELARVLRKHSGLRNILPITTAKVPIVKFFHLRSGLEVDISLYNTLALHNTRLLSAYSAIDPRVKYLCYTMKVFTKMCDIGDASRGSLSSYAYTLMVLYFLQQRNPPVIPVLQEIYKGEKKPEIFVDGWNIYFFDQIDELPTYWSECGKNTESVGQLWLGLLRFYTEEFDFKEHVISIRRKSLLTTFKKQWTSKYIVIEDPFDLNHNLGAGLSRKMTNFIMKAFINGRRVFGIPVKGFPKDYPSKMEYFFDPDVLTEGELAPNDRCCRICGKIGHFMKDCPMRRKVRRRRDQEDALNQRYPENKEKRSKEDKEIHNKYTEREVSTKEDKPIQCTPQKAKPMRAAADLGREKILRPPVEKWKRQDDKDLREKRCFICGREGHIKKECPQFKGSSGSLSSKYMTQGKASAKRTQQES

B1: pre-let-7g (structured_RNA)
RNA: UGAGGUAGUAGUUUGUACAGUUUGAGGGUCUAUGAUACCACCCGGUACAGGAGAUAACUGUACAGGCCACUGCCUUGC
For B1, the binding result in the series with TUT4 (ZCCHC11);LIN28A [1] and with TUT7 (ZCCHC6);LIN28A was “binds” in each case.

B2: pre-let-7g_3'CY (structured_RNA)
RNA: B1 RNA
For B2, the binding result (in the series with TUT4 (ZCCHC11);LIN28A [2]; in series [3]) was “binds” each time.
